For data set [1], the target named is T1, NucV (Streptomyces calvus, UniProt A0A142C6V8).
T1 construct: gene apt; N-terminal 6-His tag kept; expressed in E. coli BL21(DE3)
The data set is described as follows: HPLC of AMP formation, Michaelis-Menten fit. Conditions: 10 mM MgCl2, 50 mM Tris-HCl, 150 mM NaCl, pH 7.5, room temperature, apparent. It counts as biochemical. An excerpt: HPLC of AMP formation, Michaelis-Menten fit on NucV

In data set [2] the target is T2, ScAPRT (Streptomyces calvus, UniProt A0A514K045).
T2 construct: gene apt; N-terminal 6-His tag kept; expressed in E. coli BL21(DE3); housekeeping APRT, not NucV
The data set is described as follows: HPLC of AMP formation, Michaelis-Menten fit. Conditions: 10 mM MgCl2, 50 mM Tris-HCl, 150 mM NaCl, pH 7.5, room temperature, apparent. It counts as biochemical. The text has this: HPLC of AMP formation, Michaelis-Menten fit on ScAPRT

Data set [3] concerns T3, CSC[C@H]1O[C@@H](n2cnc3c(N)ncnc32)[C@H](O)[C@@H]1O.
T3 construct: expressed in E. coli SHuffle T7 Express lysY; amylose then Ni-NTA
The data set is described as follows: purified protein. In kind it is biochemical, Streptomyces calvus. Conditions: 10 mM phosphate, 50 mM Tris-HCl, 150 mM NaCl, pH 7.5, room temperature, apparent. An excerpt:
(§1) HPLC of adenine formation, Michaelis-Menten fit on MBP-NucPNP

The test system of data set [4] is T4, Nc1ncnc2c1ncn2[C@@H]1O[C@H](CO)[C@@H](O)[C@H]1O.
T4 construct: expressed in E. coli SHuffle T7 Express lysY; amylose then Ni-NTA
In words: purified protein. In kind it is biochemical, Streptomyces calvus. Conditions: 10 mM phosphate, 50 mM Tris-HCl, 150 mM NaCl, pH 7.5, room temperature, apparent.
Text: as §1

Substrate in data set [5]: O=P(O)(O)OC[C@H]1O[C@H](OP(=O)(O)OP(=O)(O)O)[C@H](O)[C@@H]1O
The data set is described as follows: HPLC of AMP formation, Michaelis-Menten fit. In kind it is biochemical, Escherichia coli. Conditions: 500 μM adenine, 10 mM MgCl2, 50 mM Tris-HCl, 150 mM NaCl, pH 7.5, room temperature, apparent.

Substrate in data set [6]: Nc1ncnc2nc[nH]c12
In words: purified protein. Conditions: 500 μM PRPP, 10 mM MgCl2, 50 mM Tris-HCl, 150 mM NaCl, pH 7.5, room temperature, apparent.

The source of these data is PMC8694150, “Characterization of NucPNP and NucV involved in the early steps of nucleocidin biosynthesis in Streptomyces calvus” (RSC Advances, 2021).

T2 sequence (A0A514K045 entry or part of it): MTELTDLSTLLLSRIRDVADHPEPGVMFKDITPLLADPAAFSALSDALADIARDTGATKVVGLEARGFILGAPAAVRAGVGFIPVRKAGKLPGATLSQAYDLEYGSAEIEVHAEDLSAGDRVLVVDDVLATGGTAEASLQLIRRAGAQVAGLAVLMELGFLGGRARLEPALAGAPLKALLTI
T1 sequence (A0A142C6V8 entry or part of it): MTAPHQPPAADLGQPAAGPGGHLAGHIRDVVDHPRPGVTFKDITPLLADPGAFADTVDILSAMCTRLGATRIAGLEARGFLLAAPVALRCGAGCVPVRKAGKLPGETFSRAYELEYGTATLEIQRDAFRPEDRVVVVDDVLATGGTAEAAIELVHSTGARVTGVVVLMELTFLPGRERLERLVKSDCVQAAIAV

As for `Nc1ncnc2nc[nH]c12` [compound 3, adenine], the results for the Michaelis-Menten constant (Km) in data set [1] (500 μM PRPP) and in data set [2] (500 μM PRPP) were 6.8 ± 1.4 µM and 2.8 ± 0.6 µM, respectively.
With `O=P(O)(O)OC[C@H]1O[C@H](OP(=O)(O)OP(=O)(O)O)[C@H](O)[C@@H]1O` [compound 5, 5-phospho-α-D-ribose-1-diphosphate], the results for the Km in data set [1] (500 μM adenine) and in data set [2] (500 μM adenine) were 21.4 ± 3 µM and 9.8 ± 2 µM, respectively.
Turning to MBP-NucPNP (Streptomyces calvus), in data set [3], the Km – broadly, the substrate concentration at which the rate is half of its maximum – worked out at 43.5 ± 4.1 µM; the kcat (in general, the number of substrate molecules converted per active site and unit of time at saturation) came to 0.15 ± 0.01 s⁻¹; the kcat/Km (in general, the turnover number divided by the Michaelis constant) came to 3400 M⁻¹ s⁻¹. Also, in data set [4], the Km was determined as 90.3 ± 8.2 µM, the kcat turned out to be 0.49 ± 0.02 s⁻¹ and the kcat/Km came out at 5500 M⁻¹ s⁻¹.

B1: EcAPRT (Escherichia coli K-12) (protein)
chain: MTATAQQLEYLKNSIKSIQDYPKPGILFRDVTSLLEDPKAYALSIDLLVERYKNAGITKVVGTEARGFLFGAPVALGLGVGFVPVRKPGKLPRETISETYDLEYGTDQLEIHVDAIKPGDKVLVVDDLLATGGTIEATVKLIRRLGGEVADAAFIINLFDLGGEQRLEKQGITSYSLVPFPGH
notes: N-terminal 6-His tag kept; expressed in E. coli BL21(DE3)
Consider B1, for which, in data set [5], the Michaelis-Menten constant (Km) is given as 46.4 ± 9.0 µM and the kcat was determined as 15.9 ± 1.3 s⁻¹. Further, in data set [6], the Km was 9.6 ± 2.5 µM and the turnover number (kcat) worked out at 27.3 ± 1.9 s⁻¹.
